# Biological target: TGFβ1 (PeproTech Inc, Rocky Hill, N.J.)
# Assay: cell-based or functional assay
substance,measurement,value
"human decorin (Accession #NM-001920), expressed in human corneal fibroblasts (HSF) from pcDNA3.1-decorin (from UniProt P07585 31-359)","SMA RNA level (real-time PCR), decorin-transfected vs un-transfected HSF with TGFβ1 1 ng/ml",> 6 fold
same,"SMA protein level (western blot), decorin-transfected vs un-transfected HSF with TGFβ1",83%
same,"SMA-stained cells (immunocytochemistry), decorin-transfected vs un-transfected HSF with TGFβ1",79%
same,"collagen type I RNA level (real-time PCR), decorin-transfected vs naked-vector transfected HSF with TGFβ1 1 ng/ml",1 fold
same,"collagen type III RNA level (real-time PCR), decorin-transfected vs naked-vector transfected HSF with TGFβ1 1 ng/ml",0.9 fold
same,"collagen type IV RNA level (real-time PCR), decorin-transfected vs naked-vector transfected HSF with TGFβ1 1 ng/ml",3.2 fold
same,"fibronectin RNA level (real-time PCR), decorin-transfected vs naked-vector transfected HSF with TGFβ1 1 ng/ml",3.1 fold

# Reference: US20130158103A1
